# According to publication doi:10.1101/2024.05.10.593582:
# Target: His6-Gp54^Bas11 (phage Bas11)
# Assay: ITC
substance,measurement,value
His6-MBP-CapRel^SJ46 (natural protein),Kd,800 nM
same,stoichiometry N,1
